Data set [1] addresses T1, ZmALDH12 (Zea mays, UniProt A0A2H4PMI3). The data set can be described thus: microscale thermophoresis. It is filed as binding. (MST reads how a fluorescent partner responds to local heating, with and without ligand.)
For data set [2], the target named is ZmALDH12 (Zea mays, UniProt A0A2H4PMI3, C330A). The data set can be described thus: microscale thermophoresis. It is filed as binding.
Data set [3] concerns the target T1, ZmALDH12. The data set can be described thus: microscale thermophoresis, label-free. In kind it is binding.
Substrate in data set [4]: N[C@@H](CCCC=O)C(=O)O
Description: NADH formation, spectrophotometry/fluorescence. The note with it: 3.0 mM NAD+, 100 mM pyrophosphate pH 7.5, 30 °C. It is filed as biochemical, Zea mays.

Substrate in data set [5]: O=C[C@H](O)COP(=O)(O)O
Description: NADH formation, spectrophotometry/fluorescence. In kind it is biochemical, Zea mays. To be noted: 3.0 mM NAD+, 100 mM pyrophosphate pH 7.5, 30 °C.

Substrate in data set [6]: NC(CCC=O)C(=O)O
Description: NADH formation, spectrophotometry/fluorescence. In kind it is biochemical, Zea mays. The note with it: 3.0 mM NAD+, 100 mM pyrophosphate pH 7.5, 30 °C.

Substrate in data set [7]: NC(CCC=O)C(=O)O
Description: NADH formation, spectrophotometry/fluorescence. It is filed as biochemical, Physcomitrium patens. To be noted: 3.0 mM NAD+, 100 mM pyrophosphate pH 7.5, 30 °C.

Substrate in data set [8]: O=CCCCC(=O)O
Description: NADH formation, spectrophotometry/fluorescence. It is filed as biochemical, Physcomitrium patens. To be noted: 3.0 mM NAD+, 100 mM pyrophosphate pH 7.5, 30 °C.

Substrate in data set [9]: N[C@@H](CCCC=O)C(=O)O
Description: NADH formation, spectrophotometry/fluorescence. In kind it is biochemical, Physcomitrium patens. To be noted: 3.0 mM NAD+, 100 mM pyrophosphate pH 7.5, 30 °C.

For orientation: Kd means the concentration at which binding is half-saturated. Low readings indicate higher affinity, high ones lower affinity. With `NC(CCC=O)C(=O)O` (racemic) [GSAL], the Kd on ZmALDH12 [1] turned out to be 166 ± 14 µM; on ZmALDH12 [2], 315 ± 48 µM.
In the case of `N[C@@H](CCC(=O)O)C(=O)O` [glutamate], on ZmALDH12 [3], the Kd was determined as 3100 ± 300 µM.
For the molecule `NC(=O)c1ccc[n+]([C@@H]2O[C@H](COP(=O)(O)OP(=O)(O)OC[C@H]3O[C@@H](n4cnc5c(N)ncnc54)[C@H](O)[C@@H]3O)[C@@H](O)[C@H]2O)c1` [NAD^+], the Kd at ZmALDH12 [1] came out at 186 ± 25 µM.
The same measure, in the same setting: next, `O=CCCCC(=O)O` [GRSAL]: 34 ± 11 µM.

B1: ZmALDH12 (Zea mays) (protein)
chain: APFACVSRWLHTPSFATVSPQEVSGSSPAEVQNFVQGSWTASANWNWIVDPLNGDKFIKVAEVQGTEIKSFMESLSKCPKHGLHNPLKAPERYLMYGDISAKAAHMLGQPTVLDFFAKLIQRVSPKSYQQALAEVQVSQKFLENFCGDQVRFLARSFAVPGNHLGQRSNGYRWPYGPVAIITPFNFPLEIPLLQLMGALYMGNKPVLKVDSKVSIVMEQMIRLLHDCGLPAEDMDFINSDGAVMNKLLLEANPKMTLFTGSSRVAEKLAADLKGRVKLEDAGFDWKILGPDVQEVDYVAWVCDQDAYACSGQKCSAQSVLFMHKNWSSSGLLEKMKKLSERRKLEDLTIGPVLTVTTEAMIEHMNNLLKIRGSKVLFGGEPLANHSIPKIYGAMKPTAVFVPLEEILKSGNFELVTKEIFGPFQVVTEYSEDQLELVLEACERMNAHLTAAIVSNDPLFLQDVLGRSVNGTTYAGIRARTTGAPQNHWFGPAGDPRGAGIGTPEAIKLVWSCHREIIYDVGPVPESWALPSAT
In general, Km refers to the substrate concentration at which the rate is half of its maximum. As a reminder, the kcat is the maximal rate divided by the concentration of active sites. Usually kcat/Km stands for the second-order rate constant that governs catalysis at low substrate concentration. Take B1: in data set [4], the Km was determined as 173 ± 12 µM, the kcat worked out at 0.04 ± 0.02 s⁻¹ and the kcat/Km worked out at 200 ± 20 M⁻¹ s⁻¹. Also, in data set [5], the Km was determined as 1860 ± 99 µM, the kcat was found to be 0.4 ± 0.1 s⁻¹ and the kcat/Km stood at 210 ± 20 M⁻¹ s⁻¹.

B2: ZmALDH12 (Zea mays; K329A) (protein)
chain: APFACVSRWLHTPSFATVSPQEVSGSSPAEVQNFVQGSWTASANWNWIVDPLNGDKFIKVAEVQGTEIKSFMESLSKCPKHGLHNPLKAPERYLMYGDISAKAAHMLGQPTVLDFFAKLIQRVSPKSYQQALAEVQVSQKFLENFCGDQVRFLARSFAVPGNHLGQRSNGYRWPYGPVAIITPFNFPLEIPLLQLMGALYMGNKPVLKVDSKVSIVMEQMIRLLHDCGLPAEDMDFINSDGAVMNKLLLEANPKMTLFTGSSRVAEKLAADLKGRVKLEDAGFDWKILGPDVQEVDYVAWVCDQDAYACSGQACSAQSVLFMHKNWSSSGLLEKMKKLSERRKLEDLTIGPVLTVTTEAMIEHMNNLLKIRGSKVLFGGEPLANHSIPKIYGAMKPTAVFVPLEEILKSGNFELVTKEIFGPFQVVTEYSEDQLELVLEACERMNAHLTAAIVSNDPLFLQDVLGRSVNGTTYAGIRARTTGAPQNHWFGPAGDPRGAGIGTPEAIKLVWSCHREIIYDVGPVPESWALPSAT
As to B2, in data set [6], the Km stood at 958 ± 47 µM and the kcat is 0.26 ± 0.01 s⁻¹.

B3: PpALDH12 (Physcomitrium patens) (protein)
chain: SSTLLSDHRPQSSLSFASCDADKLSEAHQYQMHNLVQGKWEQTSKSIELLDPLNGEKFISVPDTSIDEISPFVQSLRACSKSGLHNPLKNPERYLLYGDIMAKAAHLLKQPQVETFFARLIQRVAPKSFAQAVGEVTVTQKFLENFSGDQVRFLARSFVVPGNYQGQQSNGMRWPYGPVAIITPFNFPLEIPALQALGALFMGNKPILKVDSKVSIVMEQFIRLLHKCGMPPTDMDFINSDGPVMNKLLLEAEPKTTLFTGSSKVAEKLALDLKGRVKLEDAGFDWKILGPDVQNEDYVAWVCDQDAYACSGQKCSAQSILFMHENWANQNFLERLKKLASKRKLEDLTVGPVLTVTTERMLDHVKNLLAIPGARVEFGGKPLTNHTIPDVYGALEPTAVFVPLKEILRNEENFALATTEIFGPFQILTEYKHEDLPLVFEACERMHAHLTAAVVSNDVHFLQEVLSNTVNGTTYAGIRARTTGAPQNHWFGPAGDPRGAGIGTPEAIKLVWSCHREIIQDVGPIPNGWSTPQCT
As for B3, the Km in data set [7] is 228 ± 40 µM; in data set [8], 82 ± 6 µM; in [9], 211 ± 13 µM. Moreover, the turnover number (kcat) in data set [7] stood at 0.44 ± 0.05 s⁻¹; in [8], 0.3 ± 0.02 s⁻¹; in data set [9] it was 0.005 ± 0.001 s⁻¹. The kcat/Km in [7] was found to be 1900 ± 600 M⁻¹ s⁻¹; in data set [8], 3700 ± 600 M⁻¹ s⁻¹; in data set [9] it was 26 ± 2 M⁻¹ s⁻¹.

Values taken from paper PMC6365017 (Journal of molecular biology, 2018).
